Where “and” joins values, the source holds several entries; their conditions need not be identical. Equal values may be shown once. Read-outs that look alike come from different tables or passages of the source. One block for each molecule: values may come before it. Where no end group is shown, it is not given here. TAMRA = 5(6)-carboxytetramethylrhodamine
Tests used:
NPR-1 [1] = molecular target: T1, NPR-1 (Caenorhabditis elegans, UniProt Q18534); assay: cAMP reporter gene assay; format: cell-based, C. elegans; settings: wild type NPR-1
T1 sequence (Q18534 1-457): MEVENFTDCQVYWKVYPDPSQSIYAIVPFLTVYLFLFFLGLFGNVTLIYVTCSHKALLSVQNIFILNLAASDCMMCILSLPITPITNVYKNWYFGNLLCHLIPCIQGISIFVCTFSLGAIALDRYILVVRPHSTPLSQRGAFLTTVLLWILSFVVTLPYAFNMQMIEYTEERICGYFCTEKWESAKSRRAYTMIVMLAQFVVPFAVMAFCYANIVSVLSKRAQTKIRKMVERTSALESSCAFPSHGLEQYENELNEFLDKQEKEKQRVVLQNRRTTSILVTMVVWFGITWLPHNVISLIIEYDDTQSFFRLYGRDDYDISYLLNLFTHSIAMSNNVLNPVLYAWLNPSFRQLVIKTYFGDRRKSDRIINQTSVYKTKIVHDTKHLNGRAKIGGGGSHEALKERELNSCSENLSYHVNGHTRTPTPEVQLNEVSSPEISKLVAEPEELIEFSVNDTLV

[2] = molecular target: T2, Nluc-NPR-1-eYFP (C. elegans neuropeptide receptor NPR-1, wild type) (C. elegans) (UniProt Q18534)
T2 sequence: T1 sequence (Q18534 1-457)

NPR-11 = molecular target: T3, NPR-11 (Caenorhabditis elegans, UniProt Q18179); assay: cAMP reporter gene assay; format: cell-based, C. elegans; settings: wild type NPR-11
T3 sequence (Q18179 1-402): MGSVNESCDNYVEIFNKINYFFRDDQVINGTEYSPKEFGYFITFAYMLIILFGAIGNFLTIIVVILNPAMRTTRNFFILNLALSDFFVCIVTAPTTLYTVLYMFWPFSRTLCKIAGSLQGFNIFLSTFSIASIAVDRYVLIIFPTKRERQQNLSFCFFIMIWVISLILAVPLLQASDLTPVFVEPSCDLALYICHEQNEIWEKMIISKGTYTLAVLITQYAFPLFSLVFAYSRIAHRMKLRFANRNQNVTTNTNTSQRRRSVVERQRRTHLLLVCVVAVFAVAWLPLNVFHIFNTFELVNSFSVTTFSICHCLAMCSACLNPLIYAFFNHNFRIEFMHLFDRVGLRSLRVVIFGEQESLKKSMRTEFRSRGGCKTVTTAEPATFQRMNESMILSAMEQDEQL

NPR-1 [3] = molecular target: T1, NPR-1; assay: NanoBRET displacement binding assay, Nluc-NPR-1; set-up: species or system C. elegans; settings: HEK293 membranes, 100 nM [TAMRA]-FLP-21 tracer, 90 min, room temperature
[4] = molecular target: T2, Nluc-NPR-1-eYFP (C. elegans neuropeptide receptor NPR-1, wild type) (C. elegans); remark: listed apart in the source
NPR-1 mutants [5] = molecular target: NPR-1 mutants (Caenorhabditis elegans, UniProt Q18534, E180D); assay: cAMP reporter gene assay; format: cell-based, C. elegans; settings: NPR-1 E^5.27D
Chain of NPR-1 mutants (Caenorhabditis elegans, UniProt Q18534, E180D) (Q18534 whole entry E180D): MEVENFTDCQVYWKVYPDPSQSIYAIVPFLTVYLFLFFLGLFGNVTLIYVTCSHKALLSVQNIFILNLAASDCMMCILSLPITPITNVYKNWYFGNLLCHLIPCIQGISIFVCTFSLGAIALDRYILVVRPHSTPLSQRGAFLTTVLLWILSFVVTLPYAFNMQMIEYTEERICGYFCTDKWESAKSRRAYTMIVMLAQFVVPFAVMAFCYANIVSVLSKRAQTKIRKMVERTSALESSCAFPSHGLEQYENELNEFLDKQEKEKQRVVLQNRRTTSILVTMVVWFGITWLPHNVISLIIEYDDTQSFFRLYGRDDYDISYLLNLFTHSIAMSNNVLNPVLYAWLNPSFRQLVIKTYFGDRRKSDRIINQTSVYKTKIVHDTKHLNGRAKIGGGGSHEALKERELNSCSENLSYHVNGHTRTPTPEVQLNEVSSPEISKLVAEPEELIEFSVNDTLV

NPR-1 mutants [6] = molecular target: NPR-1 mutants (Caenorhabditis elegans, UniProt Q18534, E301A); assay: cAMP reporter gene assay; format: cell-based, C. elegans; settings: NPR-1 E^6.59A
Chain of NPR-1 mutants (Caenorhabditis elegans, UniProt Q18534, E301A) (Q18534 whole entry E301A): as the sequence (Q18534 whole entry E180D) above, with D180E, E301A counted along it

NPR-11 mutants = NPR-11 mutants (Caenorhabditis elegans, UniProt Q18179, E196D); assay: cAMP reporter gene assay; format: cell-based, C. elegans; settings: NPR-11 E^5.23D
Chain of NPR-11 mutants (Q18179 whole entry E196D): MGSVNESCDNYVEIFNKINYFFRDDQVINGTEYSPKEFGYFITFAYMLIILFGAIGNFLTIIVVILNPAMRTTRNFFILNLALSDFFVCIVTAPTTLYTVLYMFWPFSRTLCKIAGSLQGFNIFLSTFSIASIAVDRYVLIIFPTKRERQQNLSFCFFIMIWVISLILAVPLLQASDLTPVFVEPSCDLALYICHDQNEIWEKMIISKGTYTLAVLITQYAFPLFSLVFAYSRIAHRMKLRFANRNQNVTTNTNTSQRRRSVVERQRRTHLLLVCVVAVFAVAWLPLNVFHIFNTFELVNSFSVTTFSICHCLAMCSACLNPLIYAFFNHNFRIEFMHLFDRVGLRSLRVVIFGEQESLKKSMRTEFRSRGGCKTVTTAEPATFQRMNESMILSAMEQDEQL

[7] = molecular target: Nluc-NPR-11-eYFP Q3.32A (C. elegans) (UniProt Q18179)
[8] = molecular target: NPR-1-eYFP E6.59A (C. elegans), Q18534
[9] = molecular target: NPR-1-eYFP E6.59D (C. elegans), Q18534
[10] = molecular target: NPR-1-eYFP E5.27D (C. elegans), Q18534
[11] = molecular target: T2, Nluc-NPR-1-eYFP (C. elegans neuropeptide receptor NPR-1, wild type) (C. elegans); remark: listed apart in the source
[12] = molecular target: T2, Nluc-NPR-1-eYFP (C. elegans neuropeptide receptor NPR-1, wild type) (C. elegans); remark: listed apart in the source
[13] = molecular target: T4, Nluc-NPR-11-eYFP (C. elegans neuropeptide receptor NPR-11, wild type) (C. elegans, UniProt Q18179 1-402); assay: FRET or BRET
T4 sequence (looked up): T3 sequence (Q18179 1-402)

[14] = molecular target: NPR-11-eYFP E5.23D (C. elegans), Q18179
[15] = molecular target: T5, Nluc-NPR-1-eYFP (C. elegans neuropeptide receptor NPR-1, wild type) (C. elegans, UniProt Q18534 1-457); assay: cell-based or functional assay
T5 sequence (looked up): T1 sequence (Q18534 1-457)

[16] = molecular target: T5, Nluc-NPR-1-eYFP (C. elegans …); assay: FRET or BRET
[17] = molecular target: Nluc-NPR-11-eYFP Q3.32A (C. elegans) (UniProt Q18179); assay: FRET or BRET
[18] = molecular target: T4, Nluc-NPR-11-eYFP (C. elegans …); assay: cell-based or functional assay
[19] = molecular target: Nluc-NPR-11-eYFP Q3.32H (C. elegans) (UniProt Q18179); assay: FRET or BRET

EC50 shift (loss of potency) relative to wild type FLP-21 (NPR-1 [1]): 3 fold
Molecule: Ac-FLP-21: FLP-21 acetylated at the free N terminus (Ac-GLGPRPLRF-NH2)

cAMP reporter gene assay (Gi/o), EC50 shift against wild type FLP-21 [2]: > 600 fold
Molecule: [F9Cha]-FLP-21 (peptide)

EC50 shift (loss of potency) relative to wild type FLP-21 (NPR-1 [1]): > 600 fold
EC50 shift relative to wild type FLP-21 (NPR-11): 20 fold
Molecule: [F^9Cha]-FLP-21: FLP-21 variant, F^9 replaced with cyclohexylalanine

EC50 shift (loss of potency) relative to wild type FLP-21 (NPR-1 [1]): 14 fold
receptor activation in words (NPR-11): wild type-like activity
Ki shift relative to wild type FLP-21 (NPR-1 [3]): 11 fold
Molecule: [F^9Y]-FLP-21: FLP-21 variant, F^9 to tyrosine (GLGPRPLRY-NH2)

EC50 shift relative to wild type FLP-34–1 (NPR-11): > 140 fold
Molecule: [L^16A]-FLP-34–1: FLP-34–1 variant, L^16 to alanine (ADISTFASAINNAGRARY-NH2)

receptor activation in words (NPR-11): impaired activation
Molecule: [L^16Q]-FLP-34–1: FLP-34–1 variant, L^16 to glutamine (ADISTFASAINNAGRQRY-NH2)

EC50 shift (loss of potency) relative to wild type FLP-21 (NPR-1 [1]): 34 fold
EC50 shift relative to wild type FLP-21 (NPR-11): 18 fold
Molecule: [P^6A]-FLP-21: FLP-21 variant, P^6 to alanine (GLGPRALRF-NH2)

cAMP reporter gene assay (Gi/o), EC50 of receptor activation [4]: 5.2 nM
Molecule: [R5hArg]-FLP-21 (peptide)

EC50 shift (loss of potency) relative to wild type FLP-21 (NPR-1 [1]): 368 fold
Molecule: [R^5A]-FLP-21: FLP-21 variant, R^5 to alanine (GLGPAPLRF-NH2)

Molecule: [R^8hArg]-FLP-21: FLP-21 variant, R^8 replaced with homoarginine
EC50 shift (loss of potency) relative to wild type FLP-21 (NPR-1 [1]): > 900 fold and 976 fold
EC50 shift relative to wild type FLP-21 at the same receptor mutant (NPR-1 mutants [5]): 34 fold
EC50 shift relative to wild type FLP-21 at the same receptor mutant (NPR-1 mutants [6]): 91 fold
EC50 shift relative to wild type FLP-21 (NPR-11): 135 fold

EC50 shift relative to wild type FLP-34–1 (NPR-11): > 900 fold
Molecule: [R^15A]-FLP-34–1: FLP-34–1 variant, R^15 to alanine (ADISTFASAINNAGALRY-NH2)

Molecule: [R^17hArg]-FLP-34–1: FLP-34–1 variant, R^17 to homoarginine
EC50 shift relative to wild type FLP-34–1 (NPR-11): > 70 fold and 77 fold
EC50 shift compared to wild type FLP-34–1 at the same receptor mutant (NPR-11 mutants): 0.9 fold

cAMP reporter gene assay (Gi/o), EC50 of receptor activation [7]: 0.1 nM
cAMP reporter gene assay (Gi/o), EC50 of receptor activation [8]: 20 nM
cAMP reporter gene assay (Gi/o), EC50 of receptor activation [9]: 0.13 nM
cAMP reporter gene assay (Gi/o), EC50 of receptor activation [10]: 495 nM
Molecule: GLGPRPLRF-NH2 [FLP-21 (…amide)]

cAMP reporter gene assay (Gi/o), EC50 shift against wild type FLP-21 [11]: 368 fold
Molecule: GLGPAPLRF-NH2 [[R5A]-FLP-21]

cAMP reporter gene assay (Gi/o), reduction of potency against wild type FLP-21 [12]: 3 fold
Molecule: Ac-GLGPRPLRF-NH2 [N-terminally acetylated FLP-21]

Ki [13]: 107 nM
Molecule: ADISTFASAINNAGRLRY-NH2 [FLP-34–1 (ADISTFASAINNAGRLRYamide)]

cAMP reporter gene assay (Gi/o), EC50 against the wild type receptor [14]: 92 fold
Molecule: ADISTFASAINNAGRLRY-NH2 [FLP-34–1 (…amide)]

Ki [13]: 107 nM
Molecule: GLGPRPLRF-NH2 [FLP-21 (GLGPRPLRFamide)]

cAMP reporter gene assay (Gi/o), EC50 shift against wild type FLP-21 [15]: 14 fold
fold shift of Ki against wild type FLP-21 [16]: 11 fold
Molecule: GLGPRPLRY-NH2 [[F9Y]-FLP-21]

cAMP reporter gene assay (Gi/o), reduction of potency against wild type FLP-21 [15]: 12 fold
Kd [17]: 190 nM
Molecule: {TAMRA}-GLGPRPLRF-NH2 [[TAMRA]-FLP-21]

cAMP reporter gene assay (Gi/o), decrease of activity against wild type FLP-21 [15]: 497 fold
cAMP reporter gene assay (Gi/o), EC50 shift against wild type FLP-21 [18]: 10 fold
fold reduction of Ki against FLP-21 [17]: 100 fold
fold reduction of Ki against FLP-21 [13]: < 10 fold
Molecule: GLGPRPARF-NH2 [[L7A]-FLP-21]

fold reduction of binding affinity against wild type NPR-11 [19]: 4 fold
Molecule: {TAMRA}-ADISTFASAINNAGRLRY-NH2 [[TAMRA]-FLP-34–1]

cAMP reporter gene assay (Gi/o), decrease of activity against wild type FLP-21 [11]: 34 fold
Molecule: GLGPRALRF-NH2 [[P6A]-FLP-21]

From article PMC8380825 (Journal of molecular biology, 2021)
